A short description of the series: amyloid nucleation score (Sup35N fusion, yeast selection) (log enrichment); library NNK1; higher = more nucleation; inactive = no reads after selection. In a few lines:
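Peptides of 20 random codons, each fused to Sup35N, were expressed in psi-negative yeast. Cells were induced with 100 μM copper sulfate for 24 hours and grown 7 days at 30°C on medium lacking adenine and uracil, and plasmid inserts before and after selection were Illumina-sequenced. Nucleation scores are DiMSum log enrichments of output over input reads, centred on the mode score of non-aggregating sequences, and sequences under 100 input reads were excluded.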

± gives the uncertainty stated by the source.

Substance KWVDEECFDFMKGGF had an amyloid nucleation score of -0.756 ± 0.73.
Under TRMRLPP stands -0.299 ± 0.48; under TVLKVSTEYFFLMKESGVVC, 0.593 ± 0.26.
LIAVQWASMRQAWNIC yielded an amyloid nucleation score of 0.616 ± 1.2.
LLGYPSRLRPRYDFLPPGGM registered an amyloid nucleation score of 0.014 ± 0.99.
Under CHCGVL stands 0.702 ± 1.1; under ICFCL, 7.772 ± 0.054; under SPYGALFLDQLFYYQGADRG, 1.05 ± 0.84.
The same measure for KLSGMIAEMRAGPCTYRILY: -0.511 ± 0.45.
Under NLGIWPLYPYFFWLGQIWGD stands 0.022 ± 0.77; under TRFLNDIVMSIDSSIIDPTC, 0.809 ± 0.7; under SRGVAALYSSNI, -0.278 ± 0.35.
Consider QDGPIIFWDMVYFSFYFKH, for which the amyloid nucleation score was -0.925 ± 1.2.
Under FEDIRYDRKVWGICALSNCA stands 0.814 ± 0.47; under MSFDGVEYRTCNVYVSVTWG, -0.133 ± 0.77; under FFLNQMIILSLACIGEPGQG, 5.08 ± 0.068.
The same measure for TIFTPNIR: 0.132 ± 0.66; for KCGIVVNVQHRKPRGRIPAQ: -1.02 ± 0.67.
Under LRFHEGVLGAMFEGSVCVLE stands -0.01 ± 1.5; under MSLMSPAYNATNYWAVWRHK, -0.029 ± 0.27; under AMIPNVRVYVVVITNISFCV, 0.736 ± 0.26.
FPDNVISIIDFR had an amyloid nucleation score of -0.235 ± 0.54.
The same measure for TVFRTSFLWHGMGRGLVR: 1.03 ± 0.59.
The same measure for MIAFYIVLLPVIRGYRSGCK: “inactive”; for DLCPSGGVSDLCNPYGCFTL: -0.427 ± 0.71; for FIRVGLVCVLKFRSVGEAWL: -0.045 ± 0.9.
The same measure for NGFRTSTSCVILLPFCKGQK: -0.129 ± 0.57; for HQIPCPFRSRLARPGHLLEI: -0.612 ± 1.
Substance IHWNWWIRLCGFPFAFYISG registered an amyloid nucleation score of 0.233 ± 0.32.
The same measure for RSSSHYRSDERPIDFVNEQE: -1.16 ± 0.77; for RAPTFMMNLDG: 3.34 ± 0.12.
Under MGEATGSGISADDVYVQGEY stands 4.26 ± 0.069; under PTRLLLVSDRVTVHELF, “inactive”.
Under FTLSPLGCVYYDT stands 0.712 ± 0.72.
Substance VVCNCGHGIKNIC registered an amyloid nucleation score of -1.08 ± 1.6.
Under SLPRSSIRYRFQCVRLESVM stands -0.601 ± 0.47.
The same measure for QRFWYTGFGSVPIQDIEVGI: 0.328 ± 0.32; for HLSLGINVPTCFLSEKALLV: 1.25 ± 0.68; for FDNVVGYNGFMDGPGYLLYT: -0.16 ± 0.25.
Under IGMQLMVKTSLRHYGMYHTA stands 1.65 ± 0.44; under FSTFVGHYLSKMKWITVVNS, 0.531 ± 0.36.
Consider QERTMVLMLHMYYSGCAILM, for which the amyloid nucleation score amounted to 0.761 ± 0.56.
The same measure for YIKMIR: -0.759 ± 0.97; for TGCRGSVMSFDMLFSYILYL: 0.205 ± 0.26; for KLSNEYW: -0.485 ± 0.36.
The substance LITLAFVVSCVSYSRGSKRR returned an amyloid nucleation score of 1.26 ± 0.17.
Under WGQFYVLTSVLHYINQWH stands -2.58 ± 2.7.
Under YDIQVISPPSKM stands 0.202 ± 0.31; under WGTLVIGCFVHTVNLHNRKR, 6.809 ± 0.048; under CCWSYR, 2.51 ± 0.13.
Under FKASIYDISQNT stands -0.459 ± 0.3.
WVSSDITGRG displayed an amyloid nucleation score of 1.87 ± 0.65.
The same measure for HSWCMSSSSIKFVCLENDLL: 6.804 ± 0.061; for SMWTKKLFMFHNGI: 0.201 ± 0.56; for RGAPKLCTDIDWARYFNRGL: -0.407 ± 0.4.
The same measure for VLRCVISLQV: “inactive”; for KVSYRMRASPRSKILVIRKS: 0.43 ± 0.72.
Under GFWSRSGSYQLICIYFGGYG stands -0.296 ± 0.4; under TFHAHTLWQGAQVIRQSETR, 0.053 ± 0.47; under SANRA, 0.62 ± 0.41.
On to VNIKLLVVRAVFVILKDMGK, for which the amyloid nucleation score is 2.16 ± 0.12.
Under INNIVK stands 0.602 ± 0.29; under RLVRCMGTVIINQSHSCDRG, 0.607 ± 0.64; under ITRSWLT, -0.12 ± 0.3.
The same measure for HYACRRSVERSKRRGVRGSM: 0.039 ± 0.46; for NDTNI: 0.175 ± 1.1.
Under NNEPGLGEK stands -0.598 ± 0.92; under LDRYVRFEIRS, 0.661 ± 0.56.
As for ANENLMNRYITNKRSCWCRW, the amyloid nucleation score was -0.728 ± 0.48.
The same measure for DSGLLMKVSWKSDNC: -0.284 ± 0.39; for YYFKRNTCCAAVLKHPFPVS: 0.019 ± 0.99; for YISEM: 0.544 ± 0.35.
With WEWIQDVWVPHISDPLSWAI, the amyloid nucleation score is -1.2 ± 0.83.
The same measure for GFYVAETRKVRLCMARWYCG: 0.368 ± 0.47; for FNWLTTEFRW: -0.037 ± 0.36.
GTFSGQKLCYVCVSLSGFG showed an amyloid nucleation score of 0.005 ± 0.5.
Under HLVRLTFVMLFGGNLWISS stands 0.91 ± 0.26; under DYRLKLLYYSSWSVLLYFVG, -0.142 ± 0.21; under VYTSTVMFEHMDRNMLMVKM, 0.166 ± 0.21.
In turn, HYMRWIGLRTDTKGPRSGSG showed an amyloid nucleation score of -0.578 ± 0.86.
In turn, IYYMYYLYHYWMILRENDFM showed an amyloid nucleation score of 0.151 ± 0.21.
The same measure for CFYMVSFEFR: 1.12 ± 0.34; for VRLGMRQMCYQKNRTCQVYF: -0.173 ± 0.62.
Under MITSDKIGSQWLQCRLKVAC stands -0.43 ± 0.53.
Under SNVFYVYRVVKSCIIFDSVL stands 2.6 ± 0.076.
For the substance SMVVV, the amyloid nucleation score entry was “inactive”.
RSEATLYRRSSDGVKNVLQK came in with an amyloid nucleation score of -0.535 ± 0.32.
Under DFIKTTQSFQYQRAD stands -0.717 ± 0.26; under VYWRREVSI, 0.312 ± 1.2; under VVLSIYTNITSCCDLLTSRR, 6.787 ± 0.047.
The same measure for RLSTAMRVEVIGVSCSDARA: -0.033 ± 0.28; for GRLFWVNVTLNLRDMNYSDM: 1.09 ± 0.5.
The same measure for LFTFIGAVCFILNIACSLFF: 1.05 ± 0.58.
HLLNMNSDLRTHCYVVWT: the amyloid nucleation score was -0.264 ± 0.25.
The same measure for GSWGVRVFHFFARSRP: 0.032 ± 0.79; for ERAPASSMGSWYGIGKGNAV: -0.061 ± 1.1; for FRGMGAS: 0.617 ± 0.62.
The same measure for PRRHYGLRFGHGHLISVWLR: 0.642 ± 0.41; for GLILNNLSWAHWPPGGSMWL: 2.72 ± 0.17; for SLPITLLPKGFATKVFVRVC: -0.127 ± 0.72.
Under GTCFCFITVSLLLVPVVLSD stands -1.02 ± 2.7; under DMIKNAVNILLMMSVF, -0.399 ± 0.28.
As for IYVRGRMRVMGARH, the amyloid nucleation score was -1.26 ± 1.5.
With IAMKPENK, the amyloid nucleation score was -0.997 ± 0.57.

These data come from the supplement of paper PMC12042874.
